Measurements as given in patent US20240116985A1, “STAPLED PEPTIDES AND METHODS THEREOF” (priority 2020, published 2024).
Starred links: 1 amine or outer side, 2 acyl side, 3 side chain; linkers in the order of their positions; H or OH if unused. Positions of bridges follow the written chain, without caps; N, C: chain ends. Non-standard residues stand in square brackets, D forms with d. Primed or numbered codes have the meaning given here. PyrS2″ = (S)-3-amino-1-((pent-4-en-1-yloxy)carbonyl)pyrrolidine-3-carboxylic acid (stapling residue), C=CCCCOC(=O)N1CC[C@@](N[*:1])(C(=O)[*:2])C1; B5(32) = 2-amino-2-(pent-4-en-1-yl)hept-6-enoic acid (bis-4-pentenylglycine, two alkene side chains), C=CCCCC(CCCC=C)(N[*:1])C(=O)[*:2]; B5(4) = 2,2-bis(4-pentenyl)glycine = 2-amino-2-(pent-4-en-1-yl)hept-6-enoic acid (stitching residue), C=CCCCC(CCCC=C)(N[*:1])C(=O)[*:2]; PyrS2 = (S)-3-amino-1-((pent-4-en-1-yloxy)carbonyl)pyrrolidine-3-carboxylic acid, C=CCCCOC(=O)N1CC[C@@](N[*:1])(C(=O)[*:2])C1; PyrS = (S)-1-((allyloxy)carbonyl)-3-aminopyrrolidine-3-carboxylic acid, C=CCOC(=O)N1CC[C@@](N[*:1])(C(=O)[*:2])C1; MorphAsn = (S)-2-amino-4-morpholino-4-oxobutanoic acid, O=C(C[C@H](N[*:1])C(=O)[*:2])N1CCOCC1; B5(3) = 2,2-bis(4-pentenyl)glycine (stitching residue), C=CCCCC(CCCC=C)(N[*:1])C(=O)[*:2]; B5 = 2-amino-2-(pent-4-en-1-yl)hept-6-enoic acid, C=CCCCC(CCCC=C)(N[*:1])C(=O)[*:2]; B6 = 2-amino-2-(hex-5-en-1-yl)oct-7-enoic acid, C=CCCCCC(CCCCC=C)(N[*:1])C(=O)[*:2]; Me2Asn = listed as N4-methyl-L-asparagine, CNC(=O)C[C@H](N[*:1])C(=O)[*:2]; MeAsn = N4-methyl-L-asparagine, CNC(=O)C[C@H](N[*:1])C(=O)[*:2]; MeGln = N5-methyl-L-glutamine, CNC(=O)CC[C@H](N[*:1])C(=O)[*:2]; Phe(3-COOH) = N[C@@H](Cc1cccc(C(=O)O)c1)C(=O)O; Phe(2-CF3) = N[C@@H](Cc1ccccc1C(F)(F)F)C(=O)O; Phe(4-Me) = Cc1ccc(C[C@H](N)C(=O)O)cc1; 2Nal = N[C@@H](Cc1ccc2ccccc2c1)C(=O)O; Phe(2-Me) = Cc1ccccc1C[C@H](N)C(=O)O; Bta = N[C@@H](Cc1csc2ccccc12)C(=O)O; αAllylPro = C=CC[C@@]1(C(=O)O)CCCN1; tBuAla = CC(C)(C)C[C@H](N)C(=O)O; 3Thi = N[C@@H](Cc1ccsc1)C(=O)O; Cha = N[C@@H](CC1CCCCC1)C(=O)O; S8 = C=CCCCCCC[C@](C)(N)C(=O)O; hSer = N[C@@H](CCO)C(=O)O; Aib = CC(C)(N)C(=O)O

Target: full-length beta-Catenin (Uniprot ID P35222) (Homo sapiens (Human)) (UniProt P35222)
Sequence (P35222 whole entry): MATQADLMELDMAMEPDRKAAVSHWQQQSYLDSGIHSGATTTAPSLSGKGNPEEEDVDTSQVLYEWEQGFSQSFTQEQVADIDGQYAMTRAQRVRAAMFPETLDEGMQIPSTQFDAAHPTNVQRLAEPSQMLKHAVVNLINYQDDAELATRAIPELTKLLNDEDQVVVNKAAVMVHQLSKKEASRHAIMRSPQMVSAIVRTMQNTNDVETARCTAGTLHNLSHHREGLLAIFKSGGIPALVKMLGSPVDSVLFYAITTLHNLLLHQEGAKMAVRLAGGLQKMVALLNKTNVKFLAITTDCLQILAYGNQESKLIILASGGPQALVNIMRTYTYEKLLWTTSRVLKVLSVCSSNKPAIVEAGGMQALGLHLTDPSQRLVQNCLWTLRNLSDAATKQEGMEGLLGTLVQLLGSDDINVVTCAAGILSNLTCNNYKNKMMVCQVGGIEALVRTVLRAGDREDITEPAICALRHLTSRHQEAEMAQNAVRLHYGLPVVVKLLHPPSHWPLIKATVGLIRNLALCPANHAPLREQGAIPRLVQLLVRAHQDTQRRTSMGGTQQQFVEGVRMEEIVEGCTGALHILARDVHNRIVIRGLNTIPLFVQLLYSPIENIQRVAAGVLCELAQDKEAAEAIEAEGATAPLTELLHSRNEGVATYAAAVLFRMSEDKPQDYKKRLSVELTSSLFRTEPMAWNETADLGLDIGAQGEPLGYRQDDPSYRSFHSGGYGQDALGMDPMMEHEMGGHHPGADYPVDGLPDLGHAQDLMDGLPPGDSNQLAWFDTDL
Assay: fluorescence polarization competition; 10 nM full-length beta-catenin, competitor 10 nM 5FAM-TCF4(10-53)

| Binder | IC50 [nM] | EC50 [nM] |
| --- | --- | --- |
| Ac-[αAllylPro]DA[B5(4)]DDAA[Phe(2-Me)]A[S8]F[Bta]Q-NH2 (staple 1-4, 4-11; also: earlier-eluting staple isomer) [I-365] |  | 2720 |
| Ac-[αAllylPro]DA[B5(4)]DDAAFA[S8][Phe(4-Me)][Bta]Q-NH2 (staple 1-4, 4-11) [I-369] |  | 2310 |
| Ac-[αAllylPro]DA[B5(4)]DDAAFA[S8][Phe(2-Me)][Bta]Q-NH2 (staple 1-4, 4-11) [I-367] |  | 177 |
| Ac-[αAllylPro]DA[B5(4)]DDAA[Phe(2-Me)]A[S8]F[Bta]Q-NH2 (staple 1-4, 4-11; also: later-eluting staple isomer) [I-366] |  | 1440 |
| Ac-[αAllylPro]DA[B5(4)]DDAA[2Nal]A[S8]F[Bta]Q-NH2 (staple 1-4, 4-11) [I-370] |  | 1560 |

More lines, now with the values ahead:

| IC50 [nM] | EC50 [nM] | Binder |
| --- | --- | --- |
| 210 |  | Ac-[αAllylPro]N[Cha][B5]DQQAFL[PyrS2]F[Bta][MorphAsn]-NH2 (staple 1-4, 4-11) [I-2504] |
| 168 |  | Ac-[αAllylPro]D[tBuAla][B6]D[Phe(3-COOH)]QAFL[PyrS][Phe(2-CF3)][Bta]A-NH2 (staple 1-4, 4-11; also: later-eluting staple isomer composition) [I-2507] |
| 105 |  | Ac-[αAllylPro]D[tBuAla][B5]NT[Aib]AF[MeAsn][PyrS2][3Thi][Bta]N-NH2 (staple 1-4, 4-11) [I-2497] |
| 449 |  | Ac-[αAllylPro]N[Cha][B5]DQ[hSer]AFL[PyrS2]F[Bta][MorphAsn]-NH2 (staple 1-4, 4-11) [I-2498] |
| 106 |  | Ac-[αAllylPro]D[tBuAla][B5]NT[Aib]AF[Me2Asn][PyrS2][3Thi][Bta]N-NH2 (staple 1-4, 4-11) [I-2496] |
| 154 |  | Ac-[αAllylPro]N[Cha][B5]DQ[Me2Gln]AFL[PyrS2]F[Bta][MorphAsn]-NH2 (staple 1-4, 4-11) [I-2501] |
| 214 |  | Ac-[αAllylPro]N[Cha][B5]DQ[MeGln]AFL[PyrS2]F[Bta][MorphAsn]-NH2 (staple 1-4, 4-11) [I-2502] |
| 332 |  | Ac-[αAllylPro]D[tBuAla][B6]D[Phe(3-COOH)]QAFL[PyrS][Phe(2-CF3)][Bta]A-NH2 (staple 1-4, 4-11; also: earlier-eluting staple isomer composition) [I-2506] |
| 1310 |  | Ac-[αAllylPro]N[Cha][B5]DQTAFL[PyrS2]F[Bta][MorphAsn]-NH2 (staple 1-4, 4-11) [I-2503] |

Target: full-length beta-Catenin (Uniprot ID P35222) (Homo sapiens (Human)) (UniProt P35222)
Assay: fluorescence polarization competition; full-length beta-catenin, competitor probe 5FAM-TCF4(10-53)

| Binder | IC50 [nM] |
| --- | --- |
| Ac-[αAllylPro]D[tBuAla][B5(3)]D[Phe(3-COOH)]AAFL[PyrS2″][3Thi][Bta]NL-NH2 (staple 1-4, 4-11) [I-2274] | 10 |
| Ac-[αAllylPro]D[tBuAla][B5(32)]D[Phe(3-COOH)]AAFL[PyrS2][3Thi][Bta]NLLL-NH2 (staple 1-4, 4-11; also: later eluting staple isomer (HPLC peak)) [I-2276] | 158 |
| Ac-[αAllylPro]D[tBuAla][B5(32)]D[Phe(3-COOH)]AAFL[PyrS2][3Thi][Bta]NALL-NH2 (staple 1-4, 4-11; also: earlier eluting staple isomer) [I-2277] | 114 |
| Ac-[αAllylPro]D[tBuAla][B5(3)]D[Phe(3-COOH)]AAFL[PyrS2″][3Thi][Bta]NAAAAAAA-NH2 (staple 1-4, 4-11) [I-2269] | 20 |
| Ac-[αAllylPro]D[tBuAla][B5(3)]D[Phe(3-COOH)]AAFL[PyrS2″][3Thi][Bta]NAAAAAAAAA-NH2 (staple 1-4, 4-11) [I-2270] | 40 |
| Ac-[αAllylPro]D[tBuAla][B5(3)]D[Phe(3-COOH)]AAFL[PyrS2″][3Thi][Bta]NA[Aib]A[Aib]A[Aib]A-NH2 (staple 1-4, 4-11) [I-2273] | 107 |
| Ac-[αAllylPro]D[tBuAla][B5(32)]D[Phe(3-COOH)]AAFL[PyrS2][3Thi][Bta]NALL-NH2 (staple 1-4, 4-11; also: later eluting staple isomer) [I-2278] | 120 |
| Ac-[αAllylPro]D[tBuAla][B5(32)]D[Phe(3-COOH)]AAFL[PyrS2][3Thi][Bta]NLLL-NH2 (staple 1-4, 4-11; also: earlier eluting staple isomer (HPLC peak)) [I-2275] | 117 |
| Ac-[αAllylPro]D[tBuAla][B5(3)]D[Phe(3-COOH)]AAFL[PyrS2″][3Thi][Bta]NA[Aib]A[Aib]A-NH2 (staple 1-4, 4-11) [I-2272] | 43 |

Further lines, results first:

| IC50 [nM] | Binder |
| --- | --- |
| 138 | Ac-[αAllylPro]D[tBuAla][B5(4)]D[Phe(3-COOH)]AAFL[PyrS2][3Thi][Bta]NALALA-NH2 (staple 1-4, 4-11; also: earlier eluting staple isomer) [I-2281] |
| 2860 | Ac-[αAllylPro]D[tBuAla][B5(4)]D[Phe(3-COOH)]AAFL[PyrS2][3Thi][Bta]NALALALA-NH2 (staple 1-4, 4-11; also: earlier eluting staple isomer) [I-2283] |
| 2680 | Ac-[αAllylPro]D[tBuAla][B5(4)]D[Phe(3-COOH)]AAFL[PyrS2][3Thi][Bta]NALALALA-NH2 (staple 1-4, 4-11; also: later eluting staple isomer) [I-2284] |
| 156 | Ac-[αAllylPro]D[tBuAla][B5(4)]D[Phe(3-COOH)]AAFL[PyrS2][3Thi][Bta]NALALA-NH2 (staple 1-4, 4-11; also: later eluting staple isomer) [I-2282] |

Target: full-length beta-Catenin (Uniprot ID P35222) (Homo sapiens (Human)) (UniProt P35222)
Assay: fluorescence polarization competition; peptide titrated against 10 nM full-length beta-catenin + 10 nM 5FAM-TCF4(10-53)

| IC50 [nM] | Binder |
| --- | --- |
| 2720 | Ac-[αAllylPro]DA[B5(4)]DDAA[Phe(2-Me)]A[S8]F[Bta]Q-NH2 (staple 1-4, 4-11; also: earlier-eluting staple isomer) [I-365] |
| 2310 | Ac-[αAllylPro]DA[B5(4)]DDAAFA[S8][Phe(4-Me)][Bta]Q-NH2 (staple 1-4, 4-11) [I-369] |
| 177 | Ac-[αAllylPro]DA[B5(4)]DDAAFA[S8][Phe(2-Me)][Bta]Q-NH2 (staple 1-4, 4-11) [I-367] |
| 1440 | Ac-[αAllylPro]DA[B5(4)]DDAA[Phe(2-Me)]A[S8]F[Bta]Q-NH2 (staple 1-4, 4-11; also: later-eluting staple isomer) [I-366] |
| 1560 | Ac-[αAllylPro]DA[B5(4)]DDAA[2Nal]A[S8]F[Bta]Q-NH2 (staple 1-4, 4-11) [I-370] |
